From a protein production outcome set (Wang et al. 2014) come the findings set out here.

The data set in a line: label from the status in PepcDB records.
Take “MGTPVVWEGNIGNPPEHKSFPNGNNEPRQLLRLNVMFDNSIPDGSGGYKDRGGFWANVEWWHPDAERFAQLFSKGMRVVVTGRAIMDTWKDKETGDDVWALKVEANRVAILPHRVNQVTMTQSNNTGQRQNAQQNNRPERQQNSAQQPGQHTDDLSHYGNGFDDDIPVLEHHHHHH”: the protein production entry is “not failed”.

With “MGTRGNEEEEDWFSDAREEVSSVSDCNSEVADDFVQATGDLDLWTMNPESVTNRRQKFFQSMGFSFKKRDFDLDLDLLGDSSSDHIPVSKQLTSVSETDHEEEEKEEKLLRNESTSSGSSVSSFSTASLAEAFSFRGSFQNRAKNIDDQILLTRDYSSNSSSIAEGLSESDSSRFDSYGDLPNSPMSRYEESPKKGAKGWLKKLGVLTHVLDKTEECTDGESTRSSIRRQLTRVQSFKKQFKELSSLCVGQEFSAHDGSIVVMKFSHDGKYLASAGEDCVVRVWNIIEDERRDNEFEVAESDSSCVYFGMNDKSQIEPLKTENEKIEKSRGLLRKKSESTCAVLPSKVFSISETPQHEFRGHTGEILDLSWSEKGFLLSSSVDETVRLWRVGSSDECIRVFSHKSFVTCVAFNPVDDNYFISGSIDGKVRIWDVSQFRVVDYTDIRQIVTALCYRPDGKGAVVGSMTGECRFYHTTDNQLQLDRDISLHGKKKVPNKRITGFQFFPGDSDKVMVTSADSQIRIICGVDTICKLKKASSLRTTLMSPTFASFTSDGKHIVSTIEESGIHVWDFSQPNKKASSQKPKTIRSYEGFLSRNVSVAIPWLGQGKEDSIIADLEKSFAHFPVPLDYFSPMKGATTWPEEKLGVVAGTAAAAVSATVSSRSKLRLLKSVCQNVHGSTPHLWGLVIVTATWDGSIRVFHNYGLPIRV”, the protein production entry is “failed”.

As for “MGTVMDVLKGDNRFSMLVAAIQSAGLTETLNREGVYTVFAPTNEAFRALPPRERSRLLGDAKELANILKYHIGDEILVSGGIGALVRLKSLQGDKLEVSLKNNVVSVNKEPVAEPDIMATNGVVHVITNVLQP”, the protein production result is reported as “not failed”.

“MGVALRPLLAEYKESPGWDGLGGIAAVDAFNALYQFLSGIRQADGAPLMDGQGRITSHLSGLLFRNANLIEKNITPIYVFDGKPPVFKASTLSKRREVRENAADAWEKALKEGDEESARKYAMASSKIDAFIIDSSKELLSALGIAWIQAPEEGEAQSSFMTKNGDVTYAVSQDYDSLLFGAPDLVRNITVSGKKRIRGKVLSVYPERLRLEEVLTGLSVTQEELIQIALLIGTDYNSGVPGVGPKTAVKIVREGKFYDRIGESENAAEPDQLIGYFMDPPVERSYNIESRSPDPDRVIDLLCGEHGFTQERVEAGLERLGAKKGQATLDAWF”: the protein production result is “failed”.

With “MGVARPNFFIVGAAKCGTSSLDRYLSQHPDIYIPPKKEAHFFSIPDFPERFTGPGDEGMNLYTIRDEDAYMRLFDGVRGERAVGEASVFYLFYPGTAQRMYDAYPDAKILIMLRNPVDRAFSAYMHLVRDERETLSFRESLAKEEERIRQHYEPLWYYRAVGLYAAQVKRYLDVFGREQVKVILFEEFARDPVQVVRDCCAFLGVSTDFVPDTSIRHNESGVPKSRSLYNFIAKPNALKEIVKPFIPAAVRERLGNRAKSMVLGRMEMEPDLREELTAFFAPDVARLEALIHRDLSAWRRPARAAGSQ”, the protein production result is reported as “not failed”.

As to “MGVFDKFLDIMKLNDDEYDDDDFYDDDFEDDDFDEKPHRSIFGNKKSRSDDFDDFDMDEDKHLAPSSGNKVTPMRQPAARRGVNMEVCVVKPTSVDDSREITETLLAGRTVILNLEGMDLEIAQRIIDFISGATFAISGNLQKISNYIFLVTPTNVDILEHHHHHH”, the protein production result is “not failed”.

On to “MGVLQRFERRLEGMIEGTFARAFKSELQPVEVASNVQREMDERAAIVAQGRTLVPNDFVVELSASDRERLAVYADNLGQELSKLAREYATEQGYSFVGPVRVRFETADDLQTGRFRVRSAVIRGDTVKDGEIIKPVTDHPRRGSVIPGRPRLLLSPGGAAADGSLTAQGAQQAYELTSEVTLLGRGTDCDLRLVDNGVSRHHAEIRLEGNEAILVDLNSTNGTFVNGQQVQRARLVDGSRISLGRTTMTFRRD”, for which the protein production entry is given as “failed”.

“MGVLTTFISQKALVGGYDNTIEPGVVILSGATITCNVSIGQGTFINKSTVISHDVRIGRYCEVSPGAKVLGRAIIGDRTEIGANAVILPDVIVGADCKIGAGAVVTRNIDSHTTVAGVPARSITKSSNNAFKLKSKIRNLLYHIRIADFRKLREYNHYVFGLEHHHHHH”: the protein production entry was “failed”.

Regarding “MGVLWNSIQSVLVVVLIMILGFVLRRAGWFDDKFAGTISKFIKNIALPASIFVSVLSRLTRGQLGSFAGYLAYAFLAVIIGYLIAFALVKVMRVRPGRKGIFINAIVNANTIFIGLPLNIALFGDKSMTYFLVYYIVNTVSTWAFGVFLISNDDPTKSKEKTHNKIDWKKVIPMPLVGFLVALIFLLLNIPIMKVSFVSSTLTYVGNLVTPLSLIYIGIVLADAGLKSIRFDRDTVVALVGRFILSPIVMILVLMVAGNLGASFPTLASQTLIVQSATPMLAVLPILANEAHGDVEYATNIVTTSTVLFIVVVPVLMTLIQYI”, the protein production result is recorded as “failed”.

On to “MGVNSQKSQGEDVSPDSNIETKEGTYVGLADTHTIEVTVDNEPVSLDITEESTSDLDKFNSGDKVTITYEKNDEGQLLLKDIERANLEHHHHHH”, for which the protein production result is “failed”.

With “MGWFSAPEYWLGRLALERGTAIIYLIAFVAAAQQFRPLIGEHGMLPVPRYLAGQSFWRTPSIFHFRYSDRVFAGVCWLGAVLSAAVVAGAASFVPLWATMLIWLTLWVLYLSIVNVGQAWYSFGWESLLLETGFLMIFLGNERTAPPILTLLLARWLLFRVEFGAGLIKMRGDSCWRSLTCLYYHHETQPMPGPLSWFFHHLPKPLHRIEVAGNHFAQLVVPFGLFTPQPAASIAAAIIVVTQLWLVASGNFSWLNWLTILLACSAIDTSSAAALLPMPAQPALSAPPQWFAGLVVVFTAAVLLLSYWPARNLLSSHQRMNMSFNPFHLVNTYGAFGSICRTRREVVIEGTDESPITEQTVWKAYEFKGKPGDPRRLPRQWAPYHLRLDWLMWFAAISPGYALPWMTPFLNRLLRNDPATLKLLRHNPFPQSPPRYVRAQLYQYRFTTVAELRRDRAWWHRTLIGRYVPPMSLRKVASPPAD”, the protein production result is given as “failed”.

For “MGWHCVFFQMDLRYCSVQTLARTHQVMRELVQASAFVELNRFFDRLEAQWRQAPPGEFPAYLAAIDGHMLLDQENQGDRALSQVLRAWIDACPRAYHPQVVMGMHCFHRACQVQVDGPRNAARLLAVAQICESATAHLLRAMDRSAHPVAAAIGMLRISAQFHEPGWLLQLFQGEPARFRPSAHADVEVQEAAAPLLVRHGLLPLAELPQSLPRYLGKRVDHENEDPRYYWLRHALIARPGCFEAIQALAVYLLPRWGGSLDAFELLVNGPLCATWDERLRNALRWMAVEGRLKLPQADKVQAVADWQHVFEDWSQRPLRPRERAVVLAWRGALRSRVSGDHAGAMRDFGASLACNADLGAIRAMGVPFRCLAELILRDGMADEKQLLHGAIERLCDGRSHAAACALRAVGHRFGLWALPRSAEQARLWLQRAVSRQCAGQAPGFEVLEVARLLWAANRHEVACYLYERCAELNLPGAALALYELHHGGLANTPAHYLDDEAAGYWLQRAVEAGSRQAKYNLACLRMDGDEDLNERSAMLAVRRLLVDALGNGQTNACARLHLGILLRRFGEAQERSEAVAYLLSLVEHPDPWLAGRASAELGLAWMQGRGTRKQSRFAAIQWVNRAASLQPRDSAIGDIQAQILNSHSRVKTLFTQCGAALFRGTLHASELPPKQAFTHAESLRVKPASDGLRRAHKPRLSGPMQG”, the protein production entry is recorded as “failed”.

For “MGWVTDWSAQAACRTTDPDELFVQGAAQNRAKAVCTGCPVRTECLADALDNRVEFGVWGGMTERERRALLRRRPTVTSWRRLLETARTEYERGVGIVPLDDDEVYENYAAVG”, the protein production entry is reported as “failed”.

For “MGYDPRISVSKWYEKWMLIYVVHSVKATTLSNYVNGFERVREYIGYMRLIEVRPTHILDMIKGLEEEGYARTTVIQSLSVVRQLFKKAYGGKMIPIDPVADIKLEHHHHHH”, the protein production result is “not failed”.

With “MHALYITHPQVKIDPAVPVPEWGLSERGAERAREASRLPWAKALRRIVSSAETKAIETAHMLAETSGAAIEIIEAMHENDRSATGFLPPPEFEKAADWFFAHPEESFQGWERAIDAQARIVEAVKAVLDRHDARQPIAFVGHGGVGTLLKCHIEGRGISRSKDQPAGGGNLFRFSIAEFSLAAASPTCDWTAMETWQG”, the protein production entry is on record as “not failed”.

Consider “MHAQTKDLTPIKGIRYYYPPDDAVLVFKDEKERIHYGGMPVPLLEDDFARLDGEPSYDEVGRGVYQALRSNPDCILCDKYAALLRDAYPHYLAELASNAIMIDSKDVEVPYLDRKIACLKVLALLEPQNPALPLEIGRVFLDRGMRLSALHLSTVSIYRAEHFLNRAHTLAPDDRNINRYLGEAYYLLGKYDEAVGFWRKATTTDEPEAERLRERIERISAGNVPLIPPVDYLEAIGAAFACNQTGEYEESIAILQDILMDPVFSEEFPIPEIHCVIGKGFTALDMPKYAEAEFRQALVMDPAHEEARALLATIAAA”, for which the protein production result is “failed”.

For the sequence “MHATDQTFQILLSQLLEKVEDRCPECGSEQYVWQQKNKDGTERCAPTCWSCGYKMLKKHEQQANQQRSQESFMARTQKFFHQGSLIADDALRQCRLTNYQTTELETRQAKERALAAVSAIVEGKPIHVIFSGKPGVGKSHLAISILVEVLERSAYQKYCLFVSYSELLEKLKMSMNESAKSQAKAQAYITRMKKADVLVLDDLGAELGIKNKVSTDFNNDILNRILEARQNKATIFTTNFSGKQLVEAYGTRIISRLMKHANGYVFQYKDTTDKRMRSVKLEHHHHHH”, the protein production result is “failed”.

For “MHDALRAYIEKYASEKISDADFEEVKKAFTFKRYKKGQFLLQEGEVSKYTAFVLKGSMRQYSVDAKGTEHIIHFGIENWWVGDRESSTMLTPSNYNIDAIEDTEVLLTTSEDLQQLTAALPVIGKMVNTMNQRNFIASQKRIHDALSLTAEERYLELLKNHPDFLQRFPQTMLASYLGITAETYSRIRKKALK”, the protein production result is recorded as “not failed”.

In the case of “MHDGSVFYTIFLIFAGAAFFSTLVLYTKQSLLVAYITLGAILGPWGFKLVSDVTVVKQIGDIGIVFLLFLLGLHLQPQNLIHMLRKVTWIAIVSSILFAALAYGIGRWFGLTVTESLILGGAMMFSSTIIGLKLLPTTILHHQHTGEVMISVLLMQDVIAIVLLILLNSAHQDGNLSISDFILVIIALPALCLFSFLFERYILIKLLARFDRTQEYVFLLSIGWCLGISVLAQTIGLSEDIGAFIAGVALASSPISLFIAESLKPLRDFFLVMFFFSIGATFNFGFGAQVVIPAVILATLILIIKPLLFYILLARSGEKKQVAKEVGIRLGQGSEFSLLVASIALSTNLISEVASNLIQATTILTFIVSSYLVVLKYPTPIALSEKMRKD”, the protein production entry is “failed”.
